This assay deals with human CD137-His tag protein (R&D Systems, 9220-4B) (human) (UniProt Q07011). As to the kind of experiment: ELISA, human CD137-His tag protein immobilized on the plate, anti-human IgG Fc-HRP, A450-A570.

B1: ctrl IgG_L-3-34-j6 (antibody, part only; not given: isotype control IgG chains and linker, not shown: another chain or arm of the molecule; small tags and cut ends)
scFv: EVQLLESGGGLVQPGESLRLSCKAFGYTFTNHHINWVRQAPGKCLEWVGYINPYNDYTTFNDKFKDRFTLSVDKSKSTAYLQMNSLRAEDTAVYYCARTWGHWYFDLWGQGTLVTVSSGGGGSGGGGSGGGGSNIQMTQSPSSLSASVGDRVTITCRASQSVSSNLAWYQQKPGKAPKLLIYDSSTRATGVPSRFSGSGSGTDFTLTISSLQPEDFATYYCQQYNNWPPWTFGCGTKLEIKR
As usually defined, the EC50 (read off the curve) is the concentration needed to bring the measured effect to its halfway point. A low value points to higher potency in that assay. For B1, the EC50 (read off the curve) was found to be 4 ng/mL.
